Measured values taken from doi:10.1101/2023.07.03.547386.

Molecular target: ATG8CL (recombinant, purified) (potato)
Test: ITC

ATG8CL (recombinant, purified) (potato), sequence (M1C146 whole entry): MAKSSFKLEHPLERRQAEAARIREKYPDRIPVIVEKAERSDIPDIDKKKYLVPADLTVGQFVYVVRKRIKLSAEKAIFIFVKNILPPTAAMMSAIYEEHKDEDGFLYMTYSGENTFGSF

Substance: Rab3GAPL AIM peptide (Rab3GAPL-AIMp)
- Kd: 962 nM
- stoichiometry N: 1.03
